Data from patent US20180155411A1.

What was measured:
[1] = biological target: VP7 of rotavirus strain 116E (G9P[11]) (human rotavirus), Q99706; assay: cell-based or functional assay
[2] = biological target: VP4 of rotavirus strain 116E (G9P[11]) (human rotavirus), Q99706; assay: cell-based or functional assay
Chain of VP4 of rotavirus strain 116E (G9P[11]) (human rotavirus), Q99706 (Q99706 22-377): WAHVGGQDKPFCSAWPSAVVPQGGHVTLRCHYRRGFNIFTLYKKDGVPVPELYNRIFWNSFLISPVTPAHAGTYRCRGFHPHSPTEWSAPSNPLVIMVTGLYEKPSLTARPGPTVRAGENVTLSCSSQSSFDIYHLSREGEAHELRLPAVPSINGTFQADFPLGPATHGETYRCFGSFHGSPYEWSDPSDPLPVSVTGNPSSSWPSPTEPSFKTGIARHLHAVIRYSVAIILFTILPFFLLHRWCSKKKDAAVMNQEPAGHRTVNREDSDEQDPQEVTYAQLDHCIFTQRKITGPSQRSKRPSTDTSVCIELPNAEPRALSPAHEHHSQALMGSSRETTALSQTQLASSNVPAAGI

Chain of VP7 of rotavirus strain 116E (G9P[11]) (human rotavirus), Q99706 (Q99706 22-377): as above

B1: mAb #57 (antibody, V domains shown)
VH: QVQLVESGGGVVQSGRSLRLSCAASGFTFRSYAMHWVRQAPGKGLEWVADLSLDGSHKYADSVRGRFTISSDSSKNTVYLQMNSLRTEDTAIYYCARAAGIMVAGTFLTEFYFDYWGQGTLVTVSS
VL: QSVLTQPPSVSGAPGQRVTISCTGSSSNIGAGYDVHWYQQLPGTAPKLLIYGNIKRPSGVPDRFSGSKSGTSASLAITGLQTEDEADYYCQSYDSSLSAYYVFGTGTRVTVL
With B1 the in vitro neutralization [1] was over 625 ng/mL.

B2: mAb #49 (antibody, V domains shown)
VH: DVQLVESGGGLVQPGGSVRLSCSASRFTFSNYAMYWVRQAPGKGLEYVSSISSDGGSTYYAESVKGRFTISRDNSKNTLYLQMRSLRAEDAAVYYCVTDVLRLPYSTGWSPGDFIYWGQGTLVTVSS
VL: DIQMTQSPSILYASVGDRVTITCRASQSVSSWLAWYQQKPGKVPKLLIYQASTLENGVPSRFSGSGSGTEFILTISSLQPDDFATYYCQHYNVLWTFGQGTKVEIK
With B2 the in vitro neutralization [2] was over 625 ng/mL.

B3: mAb #46 (antibody, V domains shown)
VH: QVQLQESGPGLVKPSETLSLTCTVSGGSINSYYWSWIRQSPGKGLEWIGYVFYSGITKYNPSLQSRVTISLDMGKNQFSLKLTSVNAADAAVYYCARNFPSYTPDWFFDLWGRGTLVTVSS
VL: EIVLTQSPGTLSLSPGERATLSCRASQSVSSDNLAWYQQKPGQPPRLLIYGASHRATGIPDRFSGSGSGTDFTLTISRLEPEDFAVYHCQQYGSSPLTFGGGTKVEIK
B3 gave an in vitro neutralization [1] of over 625 ng/mL.
